This note sets out measurements from patent US20230087378A1 (UCB, published 2023).

The target of assay [1] is T1, Human IL-13 (human, UniProt P35225 35-146). Put plainly: SPR (Biacore T200), antibody captured on anti-human F(ab')2, human IL-13 as analyte, 25 C, 1:1 model. The procedure:
(§1) A goat anti-human IgG, F(ab′)₂ fragment specific antibody (Jackson ImmunoResearch) was immobilised on a CM5 Sensor Chip via amine coupling chemistry to a level of approximately 5000 RU. […] At the end of each cycle the surface was regenerated at a flowrate of 10 μl/min using a 60 s injection of 50 mM HCl followed by a 30 s injection of 5 mM NaOH and a final 60 s injection of 50 mM HCl. […] Buffer blank injections were included to subtract instrument noise and drift.
(§2) Kinetic parameters were determined using a 1:1 binding model using Biacore T200 Evaluation software (version 3.0).
A general note: SPR reads the build-up and loss of mass on a sensor chip optically.

The target in assay [2] is T2, Human IL-17F (human, UniProt Q96PD4 31-163).
T2 sequence (looked up): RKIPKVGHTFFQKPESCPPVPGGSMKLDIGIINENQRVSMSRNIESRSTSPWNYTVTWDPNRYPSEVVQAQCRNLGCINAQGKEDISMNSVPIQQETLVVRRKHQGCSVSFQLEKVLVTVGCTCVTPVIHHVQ
The assay is described as follows: SPR (Biacore T200), antibody captured on anti-human F(ab')2, human IL-17F as analyte, 25 C, 1:1 model. The procedure:
as §1, §2

Assay [3] has as its target T1, Human IL-13. The assay is described as follows: SPR, antibody captured on anti-human F(ab')2, 25 nM IL-13 injected.
Assay [4] addresses Human IL-17A (human, UniProt Q16552 24-155). Put plainly: SPR (Biacore T200), antibody captured on anti-human F(ab')2, human IL-17A as analyte, 25 C, 1:1 model. As to the method:
as §1, §2

Assay [5] addresses T1, Human IL-13. The assay is described as follows: SPR, 100 nM IL-13Rα2 injected over IL-13 held by captured UCBXXXX (competitor).

A word on the Kd: it is the free concentration of one partner at which half of the binding sites on the other are occupied at equilibrium, for simple one-to-one binding. Lower therefore signals a tighter complex. What is called koff is the rate constant with which the complex falls apart. Low readings indicate slow dissociation, high ones fast dissociation. Usually kon stands for a measure of how fast the partners come together.

Regarding “BITS7201A (Genentech) (bispecific antibody)”, in assay [1], the Kd is 0.0275 nM, the koff is 5.69e-05 s⁻¹ and the kon was determined as 2.05e+06 M⁻¹ s⁻¹. Besides, in assay [2], the Kd is 0.0744 nM, the koff was 0.000574 s⁻¹ and the kon amounted to 7.71e+06 M⁻¹ s⁻¹. The molecule also came in with an IL-13 Binding (RU) in assay [3] of 8.6 RU. In addition, in assay [4], the Kd is 0.0844 nM, the koff was 0.00106 s⁻¹ and the kon was found to be 1.27e+07 M⁻¹ s⁻¹.

“IL-13Rα2 (from UniProt Q14627 27-343) (receptor)” gave an IL-13Rα2 Binding (RU) in assay [5] of 0.3 RU.

B1: DVD2174 (Abbvie) (bispecific antibody)
chain 1: EVQLVQSGAEVKKPGASVKVSCKASGYTFTTYGVSWVRQAPGQGLEWMGEIYPGNYNTYYNEKFRGRVTMTTDTSTSTAYMELRSLRSDDTAVYYCARWRTSYFSDYGYFDYWGQGTTVTVSSASTKGPEVQLVQSGAEVKKPGSSVKVSCKASGGSFGGYGIGWVRQAPGQGLEWMGGITPFFGFADYAQKFQGRVTITADESTTTAYMELSGLTSDDTAVYYCARDPNEFWNGYYSTHDFDSWGQGTTVTVSS
chain 2: DVVMTQSPLSLPVTLGQPASISCRSSQSLVHSHGNTYLHWYQQRPGQSPRLLIYTVSNRFSGVPDRFSGSGSGTDFTLKISRVEAEDVGVYYCSQSTHVPYTFGGGTKVEIKRTVAAPSVFIFPPEIVLTQSPDFQSVTPKEKVTITCRASQDIGSELHWYQQKPDQPPKLLIKYASHSTSGVPSRFSGSGSGTDFTLTINGLEAEDAGTYYCHQTDSLPYTFGPGTKVDIKR
In assay [1], B1 displayed a Kd of 0.0563 nM, a koff of 3.66e-05 s⁻¹ and a kon of 650000 M⁻¹ s⁻¹. In assay [4], this molecule came in with a Kd of 0.268 nM, a koff of 0.000128 s⁻¹ and a kon of 476000 M⁻¹ s⁻¹.

B2: DVD2166 (Abbvie) (bispecific antibody)
chain 1: EVQLVQSGAEVKKPGASVKVSCKASGYTFTTYGVSWVRQAPGQGLEWMGEIYPGNYNTYYNEKFRGRVTMTTDTSTSTAYMELRSLRSDDTAVYYCARWRTSYFSDYGYFDYWGQGTTVTVSSASTKGPEVQLVQSGAEVKKPGSSVKVSCKASGYTFTDYEIHWVRQAPGQGLEWMGVNDPESGGTFYNQKFDGRVTLTADESTSTAYMELSSLRSEDTAVYYCTRYSKWDSFDGMDYWGQGTTVTVSS
chain 2: DVVMTQSPLSLPVTLGQPASISCRSSQSLVHSHGNTYLHWYQQRPGQSPRLLIYTVSNRFSGVPDRFSGSGSGTDFTLKISRVEAEDVGVYYCSQSTHVPYTFGGGTKVEIKRTVAAPDIQMTQSPSSLSASVGDRVTITCRASSGIISYIDWFQQKPGKAPKRLIYATFDLASGVPSRFSGSGSGTDYTLTISSLQPEDFATYYCRQVGSYPETFGQGTKLEIKR
With B2, in assay [1], the affinity, expressed as Kd, was 0.0184 nM; the koff worked out at 1.5e-05 s⁻¹; the kon was determined as 816000 M⁻¹ s⁻¹. In assay [4], this molecule had a Kd of 0.137 nM, a koff of 7.68e-05 s⁻¹ and a kon of 559000 M⁻¹ s⁻¹.
